# Results as given in patent publication US12139542B2, “Inhibitors of aortic carboxypeptidase-like protein (ACLP)” (TRUSTEES OF BOSTON UNIVERSITY, priority 2014, dated 2024).
# T1: TGFβ Receptor II (TβRII) (Mus musculus, UniProt Q62312)
# T1 construct: contains the extracellular domain of mouse TβRII fused to the Fc domain of human IgG; purchased R&D
# T1 sequence (Q62312 24-166 limits assumed): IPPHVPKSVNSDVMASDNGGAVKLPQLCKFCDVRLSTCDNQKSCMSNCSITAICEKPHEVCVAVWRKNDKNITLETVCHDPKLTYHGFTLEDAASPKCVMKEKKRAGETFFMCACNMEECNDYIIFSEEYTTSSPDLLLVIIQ
# Columns and labels:
# ACLP signaling (pSmad3) = assay: TGFβ receptor-Fc decoy block of rACLP-induced pSmad3 in IMR90 fibroblasts; type: cell-based; details: IMR90 human lung fibroblast cells, 90 mins
# [1] = system: ACLP-induced myofibroblast differentiation; assay: TGFβ receptor-Fc decoy block of ACLP-induced SMA and SM-MHC expression in human lung fibroblasts; type: cell-based; details: human lung fibroblast cells with rACLP, 48 hours
# TGFβ Receptor II (TβRII) = molecular target: T1, TGFβ Receptor II (TβRII); assay: ACLP binding assay: biotinylated rACLP on streptavidin plate incubated with TβRII Fc
# Method: ACLP binding assays. To determine if ACLP binds to TGFβ Receptor II (TORII), ACLP was biotinylated using an EZ-Link Sulfo-NHS-LC-Biotin kit (Thermo Scientific 21327) according to manufacturer's instructions. Briefly, rACLP (0.267 nM) was incubated with 20 fold molar excess of biotin for 30 min at room temperature. The protein was then dialyzed back into DPBS overnight. Biotinylated ACLP (1 μg/well) was immobilized on a PIERCE™ Streptavidin coated High-Binding Capacity Plate (Thermo-Scientific PI-15500) overnight at 4° C. in binding buffer made up of PBS with Mg^2+, Ca^2+, 0.1% BSA, and 0.05% Tween 20). The next day, the plates were washed with binding buffer, blocked with the same buffer containing 1% BSA at room temperature for 1 h, followed by incubation with increasing amounts of TβRII Fc (0, 10, 100, 1000 ng). Binding was detected with Human-IgG-HRP (GE Healthcare Life Sciences) followed by incubation with 3,3′,5,5′-Tetramethylbenzidine (TMB, eBioscience). The reaction was quenched with 2 M H2SO4 and absorbance at 450 nm was measured on the BioTek Synergy HT system.
# ACLP binds to the TGFβ-receptor II. […] The TβRII Fc chimera contains the extracellular domain of mouse TβRII fused to the Fc domain of human IgG and has been used as a global inhibitor of TGFβ (6).
# [2] = system: TGFβ signaling activity (PAI-1 promoter luciferase); assay: MLEC-TGFβ activity assay (PAI-1 promoter luciferase reporter); type: cell-based, mink; details: MLEC-TGFβ cells, treated overnight in low serum media
# Method: Cell Treatments. IMR90 human lung fibroblasts (ATCC) and AD293 cells (Stratagene) were grown in DMEM supplemented with 10% FBS and 1% penicillin/streptomycin and incubated in a 5% CO2 atmosphere at 37° C. Mink lung epithelial cells stably transfected with the plasminogen activator inhibitor 1 (PAI-1) reporter construct driving luciferase expression (MLEC-TGFβ) (2) were grown in DMEM supplemented with 10% FBS and 1% penicillin/streptomycin, maintained in 250 μg/ml G418, and incubated in a 5% CO2 atmosphere at 37° C. IMR90 cells and MLEC-TGFβ cells were generally treated for 30 min, 24 h, or 48 h in low serum media containing 0.5% FBS and 1% penicillin/streptomycin and incubated in a 5% CO2 atmosphere at 37° C. Cells were treated with 3.75 μg/ml (approximately 30 nM) rACLP (full length, Tsp, or C-terminal) or 1 nM TGFβ (R&D) (as a positive control), except where indicated. Cells treated for 30 min were serum starved in low serum media overnight preceding treatment. MLEC-TGFβ activity assay. To measure TGFβ signaling activity, 1×10^4 MLEC-TGFβ cells/well were plated on white 96-well cell culture treated plates and allowed to adhere overnight. […] Luciferase activity was measured on an auto-injecting BioTek Synergy HT plate reader using 50 μl of luciferase assay substrate (Promega).
# [3] = system: IMR90 human lung fibroblast cells; assay: SMA and collagen I protein expression in IMR90 fibroblasts treated with recombinant ACLP proteins (Western blot); type: cell-based; details: IMR90, low serum media, 3.75 μg/ml (~30 nM) protein, 48 h, vs control cells
# Method: Cell Treatments. IMR90 human lung fibroblasts (ATCC) and AD293 cells (Stratagene) were grown in DMEM supplemented with 10% FBS and 1% penicillin/streptomycin and incubated in a 5% CO2 atmosphere at 37° C. Mink lung epithelial cells stably transfected with the plasminogen activator inhibitor 1 (PAI-1) reporter construct driving luciferase expression (MLEC-TGFβ) (2) were grown in DMEM supplemented with 10% FBS and 1% penicillin/streptomycin, maintained in 250 μg/ml G418, and incubated in a 5% CO2 atmosphere at 37° C.
# (§1) IMR90 cells and MLEC-TGFβ cells were generally treated for 30 min, 24 h, or 48 h in low serum media containing 0.5% FBS and 1% penicillin/streptomycin and incubated in a 5% CO2 atmosphere at 37° C. Cells were treated with 3.75 μg/ml (approximately 30 nM) rACLP (full length, Tsp, or C-terminal) or 1 nM TGFβ (R&D) (as a positive control), except where indicated. Cells treated for 30 min were serum starved in low serum media overnight preceding treatment.
# Recombinant ACLP induces myofibroblast gene and protein expression. To further define the role of ACLP in the fibroblast to myofibroblast differentiation process, IMR90 human lung fibroblast cells were treated with rACLP. […] IMR90 cells were grown in media containing 3.75 μg/ml (30 nM) rACLP or 1 nM TGFβ as a positive control (FIG. 2A). […] These findings indicate that ACLP promotes the fibroblast to myofibroblast differentiation because it stimulates expression of SMA and collagen 1(3).
# The N-terminal domain of ACLP promotes myofibroblast marker protein expression. Because the inventors discovered that the N-terminal Tsp motifs of ACLP (e.g. the PFD) is the domain responsible for promoting TGFβ signaling, the inventors next assessed which domain of ACLP is responsible for increased SMA and collagen I expression in lung myofibroblasts. IMR90 lung fibroblasts were treated in low serum media containing equal molar amounts of full-length protein, the pro-fibrotic domain (PFD) of ACLP, and C-terminal ACLP (˜30 nM) for 48 h (FIG. 7).
# [4] = system: Smad3 phosphorylation (canonical TGFβ signaling); assay: Smad3 phosphorylation in serum starved IMR90 fibroblasts (Western blot); type: cell-based, human; details: serum starved IMR90, ~30 nM protein, 30 min, low serum media
# Method: as §1
# rACLP stimulates canonical TGFβ signaling (Published Tumelty et al JBC 2014). Because ACLP increases TGFβ signaling in a reporter assay, the role of ACLP in canonical TGFβ signaling was investigated in detail. In pulmonary fibroblasts, TGFβ promotes the phosphorylation of Smad3 which then binds to Smad4 and translocates into the nucleus to promote transcription of myofibroblast marker genes (4,5). Therefore, the effects of ACLP on Smad3 phosphorylation were measured. Serum starved IMR90 cells were treated with rACLP for 15, 30, 45, or 60 min, or 24 h (FIG. 3) (3).
# Serum starved IMR90 human lung fibroblasts were treated with equivalent molar amounts (˜30 nM) of purified full-length, Tsp repeat domain, or C-terminal protein for 30 min in low serum media (FIG. 6).
pSmad3 expression in the presence of mouse rACLP (ACLP signaling (pSmad3)),ACLP-induced SM-MHC expression [1],ACLP-induced SMA expression [1],binding to streptavidin wells without ACLP (TGFβ Receptor II (TβRII); control wells without ACLP),amount that inhibited ACLP binding to TGFβ-RII in vitro (TGFβ Receptor II (TβRII); in vitro),amount that stimulated luciferase activity [2],Molecule,SMA protein expression [3],collagen protein expression [3],Smad3 phosphorylation [4]
decreases pSmad3 expression,decreases,decreases,did not bind,at least 100 ng,–,"TβRII Fc: extracellular domain of mouse TβRII fused to the Fc domain of human IgG (R&D); exemplary decoy ACLP inhibitor (protein, left off: a dimerising Fc or GST) IPPHVPKSVNSDVMASDNGGAVKLPQLCKFCDVRLSTCDNQKSCMSNCSITAICEKPHEVCVAVWRKNDKNITLETVCHDPKLTYHGFTLEDAASPKCVMKEKKRAGETFFMCACNMEECNDYIIFSEEYTTSSPDLLLVIIQ",–,–,–
–,–,–,–,–,≤ 5 µg/mL,"Tsp repeat domain: recombinant N-terminal Tsp repeat domain of mouse ACLP, amino acids 26-373, myc-His tagged (protein, left off: small tags and cut ends, recombinant N-terminal Tsp repeat domain of mouse ACLP, amino acids 26-373, myc-His tagged) QTVLTDDEIEEFLEGFLSELETQSPPREDDVEVQPLPEPTQRPRKSKAGGKQRADVEVPPEKNKDKEKKGKKDKGPKATKPLEGSTRPTKKPKEKPPKATKKPKEKPPKATKKPKEKPPKATKKPKEKPPKATKRPSAGKKFSTVAPLETLDRLLPSPSNPSAQELPQKRDTPFPNAWQGQGEETQVEAKQPRPEPEEETEMPTLDYNDQIEKEDYEDFEYIRRQKQPRPTPSRRRLWPERPEEKTEEPEERKEVEPPLKPLLPPDYGDSYVIPNYDDLDYYFPHPPPQKPDVGQEVDEEKEEMKKPKKEGSSPKEDTEDKWTVEKNKDHKGPRKGEELEEEWAPVEK",promoted an increase,promoted an increase,stimulated Smad3 phosphorylation
